In publication PMC4886647, “Transcriptional Regulation of the Outer Membrane Porin Gene ompW Reveals its Physiological Role during the Transition from the Aerobic to the Anaerobic Lifestyle of Escherichia coli”:

B1: PompW -167 to -36 native (dsDNA)
DNA 1: GAGTTAATATTTGCGTAGCGAAAATATTTAAAAATTGATTTAAATCACATTAACCAGGATTCTCAATGCAACTTCTAAATTAATCCAGATCAATAAAGGGTGAATTATCATATGTAATGTGATCTATGTAGG
DNA 2: CCTACATAGATCACATTACATATGATAATTCACCCTTTATTGATCTGGATTAATTTAGAAGTTGCATTGAGAATCCTGGTTAATGTGATTTAAATCAATTTTTAAATATTTTCGCTACGCAAATATTAACTC
B2: PompW -120 to -3 native (dsDNA)
DNA 1: CATTAACCAGGATTCTCAATGCAACTTCTAAATTAATCCAGATCAATAAAGGGTGAATTATCATATGTAATGTGATCTATGTAGGATCATTTGTTACTCCAATGTAGGTATATTCGTC
DNA 2: GACGAATATACCTACATTGGAGTAACAAATGATCCTACATAGATCACATTACATATGATAATTCACCCTTTATTGATCTGGATTAATTTAGAAGTTGCATTGAGAATCCTGGTTAATG
B3: PompW m-42.5 (dsDNA)
DNA 1: CATTAACCAGGATTCTCAATGCAACTTCTAAATTAATCCAGATCAATAAAGGGTGAATTATCATATGTAATCTATGTAGGATCATTTGTTACTCCAATGTAGGTATATTCGTC
DNA 2: GACGAATATACCTACATTGGAGTAACAAATGATCCTACATAGATTACATATGATAATTCACCCTTTATTGATCTGGATTAATTTAGAAGTTGCATTGAGAATCCTGGTTAATG

Experiments:
His6-FNR D154A = His6-FNR D154A (Escherichia coli, UniProt P0A9E5 1-250, D154A); test: EMSA; two retarded bands; EMSA: 20 mM Tris-HCl pH 8.0, 50 mM NaCl, 1 mM EDTA, 1 mM beta-mercaptoethanol, 10% glycerol, 37 C 30 min; 6% polyacrylamide gel in ice bath; 0.2 mM cAMP for CRP; conditions: protein: recombinant; tags: His6 (pET28a); chain copies: 2; blunt
His6-CRP = His6-CRP (Escherichia coli, UniProt P0ACJ8 1-210); test: EMSA; 0.2 mM cAMP; EMSA: 20 mM Tris-HCl pH 8.0, 50 mM NaCl, 1 mM EDTA, 1 mM beta-mercaptoethanol, 10% glycerol, 37 C 30 min; 6% polyacrylamide gel in ice bath; 0.2 mM cAMP for CRP; conditions: protein: recombinant; tags: His6 (pET28a); chain copies: 2; blunt

Row | Binder | binding result (His6-FNR D154A) | binding result (His6-CRP)
1 | B1 | binds | 
2 | B2 |  | binds
3 | B3 |  | no binding
